Data on five proteins can be found in patent US20180137234A1 (University of Washington, published 2018).

Data set [1] deals with the molecule itself. In words: X-ray crystal structure of the homotrimer.
Data set [2] deals with the molecule itself. In words: SEC-MALS and SAXS of the original construct. A general note: Size exclusion chromatography separates by hydrodynamic size, large species first.
Data set [3] deals with the molecule itself. The data set is described as follows: X-ray crystal structure of the homodimer.

B1: HR00C3_2 (designed binder)
chain: IEEVVAEMIDILAESSKKSIEELARAADNKTTEKAVAEAIEEIARLATAAIQLIEALAKNLASEEFMARAISAIAELAKKAIEAIYRLADNHTTDTFMARAIAAIANLAVTAILAIAALASNHTTEEFMARAISAIAELAKKAIEAIYRLADNHTTDKFMAAAIEAIALLATLAILAIALLASNHTTEEFMAKAISAIAELAKKAIEAIYRLADNHTSPTYIEKAIEAIEKIARKAIKAIEMLAKNITTEEYKEKAKSAIDEIREKAKEAIKRLEDNRT
notes: One subunit of a designed homotrimer (C3) built from a de novo designed repeat protein
Turning to B1, the binding result in data set [1] is “binds”.

B2: HR04C4_1 (designed binder)
chain: DECEEKARRVAEKVERLKRSGTSEDEIAEEVAREISEVIRTLKESGSSYEVICECVARIVAEIVEALKRSGTSAVEIAKIVARVISEVIRTLKESGSSYEVICECVARIVAEIVEALKRSGTSAAIIALIVALVISEVIRTLKESGSSFEVILECVIRIVLEIIEALKRSGTSEQDVMLIVMAVLLVVLATLQLSGS
notes: One subunit of a designed homotetramer (C4); also called tj10C4_G1
Take B2: in data set [2], the binding result is reported as “binds”.

B3: 1na0C3_3 (designed binder)
chain: NLAEKMYKAGNAMYRKGQYTIAIIAYTLALLKDPNNAEAWYNLGNAAYKKGEYDEAIEAYQKALELDPNNAEAWYNLGNAYYKQGDYDEAIEYYQKALELDPNNAEAKQNLGNAKQKQG
notes: One subunit of a designed homotrimer (C3) built from a consensus designed tpr protein
B3: the binding result in data set [1] is on record as “binds”.

B4: ank3C2_1 (designed binder)
chain: SELGKRLIEAAENGNKDRVKDLLENGADVNASDSDGKTPLHLAAENGHAKVVLLLLEQGADPNAKDSDGKTPLHLAAENGHAVVVALLLMHGADPNAKDSDGKTPLHLAAENGHEEVVILLLAMGADPNTSDSDGRTPLDLAREHGNEEVVKVLEDH
notes: One subunit of a designed homodimer (C2) built from an idealized ankyrin repeat protein; It was expressed in E. coli with an N- or C-terminal (His)6 tag
Consider B4, for which the binding result in data set [3] was “binds”.

B5: ank1C2_1 (designed binder)
chain: SELGKRLIEAAENGNKDRVKDLIENGADVNASDSDGRTPLHHAAENGHAEVVALLIEKGADVNAKDSDGRTPLHHAAENGHDEVVLILLLKGADVNAKDSDGRTPLHHAAENGHKRVVLVLILAGADVNTSDSDGRTPLDLAREHGNEEVVKALEKQ
notes: One subunit of a designed homodimer (C2) built from an idealized ankyrin repeat protein; also called ank1C2_G3; ANK1C2-G3
For B5, the binding result in data set [3] was “binds”.
